“Also recorded” adds a separate entry of the source.
Columns and labels:
p42/p44 MAPK [1] = assay: MAPK phosphorylation in NIH 3T3 fibroblasts stably transfected with GFRα1; assay type: cell-based; conditions: GDNF 100 ng/ml
Method: (§1) To assess GDNF-dependent MAPK and CREB phosphorylation in all studied cell lines, the semiconfluent cell monolayers were starved for 3 hours in serum-free medium, and then GDNF was applied for the indicated time. For the analysis of MAPK and CREB activation in Ret^−/− animals the DRG neurons were dissected from E18 mice and maintained in NGF-containing medium for 2 hours. After this time the neurons were deprived of NGF by placing them in NGF-free medium in the presence of anti-NGF antibodies. After 2 hr without NGF, the neurons were stimulated with GDNF. In the experiments involving Src-kinase inhibition, a Src-family kinase inhibitor PP2 was added at the indicated concentrations to the cell monolayers 5 min before GDNF application. In some experiments 1 μg/ml of soluble GFRα1 lacking a GPI anchor (GFRα1/Fc chimeric protein; R&D systems) was added 5 min prior to the GDNF application and was kept in the solution during the GDNF treatment, After stimulation, the cells were briefly washed with PBS/sodium vanadate and lysed in the buffer containing TBS, 2 mM EDTA, 1% NP-40, 1% Triton X-100, 1 mM PMSF, 1 mM Na3VO4 and a Complete, protease inhibitors cocktail (Boehringer Mannheim). Total cell protein for each extract was measured by MicroBSA (Pierce) and an equivalent amount of protein was resolved electrophoretically on 10% polyacrylamide gels. […]

JNK = JNK phosphorylation assay in SHEP cells; assay type: cell-based, human; conditions: GDNF 100 ng/ml
Method: as §1

p42/p44 MAP kinases = assay: MAPK phosphorylation assay in Ret^−/− DRG neurons; assay type: cell-based, mouse; conditions: GDNF 100 ng/ml
Method: as §1

Ret^−/− DRG neurons [2] = assay: Survival of Ret^−/− DRG neurons in culture; assay type: cell-based, mouse; conditions: unpublished observations and Taraviras et al., 1999
Src-type kinase = assay: Immuno-complex kinase assay on anti-GFRα1 co-precipitates from SHEP neuroblastoma cells; assay type: cell-based, human; conditions: GDNF 100 ng/ml
Method: DRG neurons (5×10^5), SHEP neuroblastoma cells (10^7), Neuro2A neuroblastoma cells stably transfected with GFRα1 (10^7) or NIH3T3 cells (NIH3T3/pBpGFRα1) stably transfected with GFRα1 (10^7) were incubated in serum-free culture medium without (control) or with GDNF (GDNF-treated) for 0.5-15 min at 37° C. The cells were washed twice with cold PBS/vanadate and lysed in TX-100 lysis buffer (50 mM Tris-HCl, pH 7.5, 150 mM NaCl, 5 mM EDTA, 1% Triton X-100, 1 mM sodium orthovanadate, 1 mM phenylmethylsulfonyl fluoride (PMSF) and protease inhibitors (Boehringer) on ice for 1 hour. The postnuclear lysates were pre-cleared by incubation with 50 μl of 50% Protein G-Sepharose for goat polyclonal antibodies or Protein A-Sepharose CL4B (Pharmacia) for rabbit polyclonal antibodies for 1 hour at +4° C. After removal of the beads, the supernatants were incubated with 0.4-0.5 μg of anti-GFRα1 or anti-Yes polyclonal antibodies (Santa Cruz Biotechnology) overnight at +4° C. followed by incubation with Protein G or A-Sepharose for 2 hours. The immunocomplexes were washed twice in TX-100 lysis buffer without EDTA and twice in kinase buffer (25 mM Hepes, pH 7.4, 5 mM MgCl2, 5 mM MnCl2, 1 mM sodium orthovanadate). […] Quantification of the optical density of the blots was performed using the TINA program. […]

Ret^−/− DRG neurons [3] = assay: GDNF-evoked [Ca^2+]i changes, confocal microscopy, Ret^−/− DRG neurons; assay type: cell-based, mouse
Method: DRG from embryonic day 18 (E18) mice were treated with trypsin (Worthington), non-neuronal cells removed by preplating, and about 95% pure neurons cultured on poly-ornithine-laminin-coated glass coverslips in Ham's F14 medium (Imperial Laboratories) with serum substitute containing NGF, BDNF and NT-3 (all from PeproTech, 2 ng/ml if each) for at least 1 day before measurement. Neurotrophins were extensively washed out before GDNF application. GDNF was from PeproTech and donated by Cephalon, Inc. Ret-deficient mice (Schuchardt et al., 1994) were identified from heterozygote matings by the absence of kidneys and PCR-based genotyping. GFRα2-deficient mice were obtained from homozygote matings (Rossi et al., 1999).
[Ca^2+]i was measured using a Bio-Rad MRC-1024 confocal microscope equipped with an argon-krypton laser. The cells were loaded with 10 μM Calcium Green-1AM (Molecular Probes), a membrane permeable Ca^2+ dye, by 30 min incubation in serum free cell-culture media at 37 ° C. and 5 % CO2. After loading, the neurons were kept at room temperature in Dulbecco's PBS solution contained 20 mM HEPES (pH=7.4) for at least 20 min prior to the experiments. All compounds were applied to the bath by a peristaltic pump. 6 kD Heparin (Sigma) and Alexa 568 nm fluorescent dye (Molecular Probes) were loaded into the cells using Molecular Probes' pinocytotic influx loading reagent basically according to the manufacturer instructions. […] Cell injection was performed using Eppendorf microinjection system. The average intensity of fluorescence in the predefined ROI (Region Of Interest) was measured on-line using TimeCourse software from BioRad. The calibration of fluorescence traces was performed in vitro using Fmax and Fmin values obtained with the calcium calibration buffer kit (Molecular Probes). Because the calibration solutions may not reflect the intracellular environment, the experimental data are presented as delta [Ca^2+]i calculated using Kd=190 nM for Calcium Green-1.

p42/p44 MAPK [4] = assay: MAPK phosphorylation assay in SHEP neuroblastoma cells; assay type: cell-based, human; conditions: GDNF 100 ng/ml
Method: as §1

MAPK = MAPK phosphorylation in parental NIH3T3 fibroblasts lacking both Ret and GFRα1; assay type: cell-based; conditions: GDNF 100 ng/ml alone
Method: as §1

B1: Glial cell line—derived neurotrophic factor (protein, UniProt P39905 78-211, looked up)
Glial cell line-derived …: SPDKQMAVLPRRERNRQAAAANPENSRGKGRRGQRGKNRGCVLTAIHLNVTDLGLGYETKEELIFRYCSGSCDAAETTYDKILKNLSRNRRLVSDKVGQACCRPIAFDDDLSFLDDNLVYHILRKHSAKRCGCI
notes: TGF-β family-related neurotrophic protein; from PeproTech and donated by Cephalon, Inc
phosphorylation of MAPK (p42/p44 MAPK [1]): reproducibly increased phosphorylation of MAPK | JNK activation (phosphorylation) (JNK): did not evoke JNK activation; also recorded: did not affect the phosphorylation of JNK | activation (phosphorylation) of MAPK (p42/p44 MAP kinases): several-fold rapid activation of MAPK | survival of Ret^−/− DRG neurons in culture (Ret^−/− DRG neurons [2]): not been shown to stimulate survival | Src type kinase activity associated with GFRα1 (Src-type kinase; 1 min, postnuclear lysate): significantly increased Src type kinase activity | increase of Src-type kinase activity (Src-type kinase; Triton X-100 insoluble fractions, relative to non-treated cells): twelve-fold | Ret^−/− DRG neurons with long-lasting [Ca^2+]i elevation (Ret^−/− DRG neurons [3]; 10-100 ng/ml GDNF): 60-70% | change in [Ca^2+]i (Ret^−/− DRG neurons [3]; 10-100 ng/ml GDNF): long-lasting [Ca^2+]i elevation | fast [Ca^2+]i rise (Ret^−/− DRG neurons [3]; GDNF): never observed a GDNF-dependent fast [Ca^2+]i rise | change in [Ca^2+]i (calcium entry) (Ret^−/− DRG neurons [3]; GDNF 100 ng/ml in nominally Ca^2+ free external solution (about 20 μM)): evoked a massive [Ca^2+]i overshoot and substantially slower decay kinetics; also recorded: resulted in a profound increase in [Ca^2+]i | p42/p44 MAPK phosphorylation (p42/p44 MAPK [4]): transient and profound increase of p42/p44 MAPK phosphorylation | MAPK phosphorylation (MAPK): did not evoke any MAPK phosphorylation

From patent US6905817B1, “Ret-independent signaling pathway for GDNF” (Licestia Ltd., priority 1998, dated 2005)
